The record followed here is a protein production outcome set (Wang et al. 2014).
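Also: failed if final PepcDB status was selected cloned or expressed and not failed if soluble or beyond.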

The series is described as follows: label from the status in PepcDB records.
As to “MAELNFKAIEEKWQKRWLEAKIFEPNIRDKPKEKKFYITVAFPYLSGHLHVGHARTYTIPDVIARFKRMQGYNVLFPMAWHITGSPIVGIAERIKNRDPKTIWIYRDVYKVPEEILWTFEDPINIVKYFMKAAKETFIRAGFSVDWSREFYTTSLFPPFSKFIEWQFWKLKEKGYIVKGAHRVRWDPVVGTPLGDHDLMEGEDVPILDYIIIKFELRENGEVIYLPAATLRPETVYGVTNMWVNPNATYVKAKVRRKDKEETWIVSKEAAYKLSFQDREIEVIEEFKGEKLIGKYVRNPVSGDEVIILPAEFVDPDNATGVVMSVPAHAPFDHVALEDLKRETEILEKYDIDPRIVENITYISLIKLEGYGDFPAVEEVNKLGIKSQKDKEKLEQATKTIYKAEYHKGIFKVPPYEGKPVQEVKEAIAKEMLEKGIAEIMYEFAEKNVISRFGNRAVIKIIHDQWFIDYGNPEWKEKARKALERMKILPETRRAQFEAIIDWLDKKACARKIGLGTPLPWDPEWVIESLSDSTIYMAYYTISRHINKLRQEGKLDPEKLTPEFFDYIFLEEFSEDKEKELEKKTGIPAEIIHEMKEEFEYWYPLDWRCSGKDLIPNHLTFFIFNHVAIFREEHWPKGIAVNGFGTLEGQKMSKSKGNVLNFIDAIEENGADVVRLYIMSLAEHDSDFDWRRKEVGKLRKQIERFYELISQFAEYEVKGNVELKDIDRWMLHRLNKAIKETTNALEEFRTRTAVQWAFYSIMNDLRWYLRRTEGRDDEAKRYVLRTLADVWVRLMAPFTPHICEELWEKLGGEGFVSLAKWPEPVEEWWNETIEAEEEFIRSVMEDIKEIIEVAKIENAKRAYIYTAEDWKWKVAEVVSEKRDFKSSMEELMKDSEIRKHGKEVAKIVQKLIKERTFDVKRINEEKALREAKEFMEKELGIEIIINPTEDKGGKKKQAMPLKPAIFIE”, the protein production entry is listed as “not failed”. As for “MLTPVADGVLVHQSELLRNNTVVVRGESGVLIVDPGLTTGEMGCLAEDLRQLGQPVVAGFATHPDWDHALWHADLGDVPRYGTARCSAYLRELRSEEGWQARVAEGLPPEIADETPLELFGLIVGLPAGAELIPWNGPEVRVIEHPAHAPGHAALLVEDRGVLVAGDMLSDLFVPMLDDTEHPVEDYLTGLRLLEKVADDVEVLVPGHGSVATADQVQVRIGRDREYLHALRDGRAPDDPRLGSSVEPGWEWVNDIHEGQAARMARRSERNGADG”, the entry is “failed”. As for “MGKVYKKVELVGTSEEGLEAAIQAALARARKTLRHLDWFEVKEIRGTIGEAGVKEYQVVLEVGFRLEET”, the entry is “not failed”; as for “MSEDNFDDEFDGSLPSGPRHPMARRFRGYLPVVVDVETGGFNSATDALLEIAATTVGMDEKGFLFPEHTYFFRIEPFEGANIEPAALEFTGIKLDHPLRMAVQEEAALTEIFRGIRKALKANGCKRAILVGHNSSFDLGFLNAAVARTGIKRNPFHPFSSFDTATLAGLAYGQTVLAKACQAAGMEFDNREAHSARYDTEKTAELFCGIVNRWKEMGGWMDDDD”, “not failed”.

Turning to “MRRCCGDLAASRGGCEPASRNLTRTRLTFAALGRINRPAEHDREDAMTRQEARDHEPRDQDAALSRRTLVRGLALGAAATMAGPALAQTGPAAPPTTITTPPRDFGPNGAPTTYFWDPDIIAVDPSFDDLAQPNTAIKRLYTGVLWAEGPAWSAQGRYLLWSDIPNNRQMRWSEDDGRISVFRSPSNNSNGNSFDFQGRQLSCEHLTRRVTRYEHDGTATVLCDNYNGKKLNSPNDVVAHPDGSYWFTDPPYGGQLYEGEPDAAGGPSNSGGKLNPRIGQPAGFTPGKRELPTNCYRIDPSGRVDLVVTEEQVPDPNGLCFSPDFKKLYVVSTGKGPGDSGPGGKGEIFVFDVGADNKLSNQKRFSDCTIDGVKCGPDGVRCDVNGNVWASSNAGRAVGYSGVTVWSPEGKLLGRIRLPEVCGNICFGGPKRNRLFMAASQSLYAVFTATQGAGPG”, the protein production entry was “failed”. As for “MSSQELVTLNVGGKIFTTRFSTIKQFPASRLARMLDGRDQEFKMVGGQIFVDRDGDLFSFILDFLRTHQLLLPTEFSDYLRLQREALFYELRSLVDLLNPYLLQPRPALVEVHFLSRNTQAFFRVFGSCSKTIEMLTGRITVFTEQPSAPTWNGNFFPPQMTLLPLPPQRPSYHDLVFQCGSDSTTDNQTGVRYVSIKPDNRKLANGTNVLGLLIDTLLKEGFHLVSTRTVSSEDKTECYSFERIKSPEVLITNETPKPETIIIPEQSQIKK”, the entry is “failed”. On to “MGLCVSVNRNEYVSSSTTAKIVTINGDLREYDVPVLASQVLESESTSSSSSSSSSSYFLCNSDSLYYDDFIPAIESDEILQANQIYFVLPISKRQYRLSASDMAALAVKASVAIEKAAGKKNRRRRSGRISPVVTLNQANDNRIAAVNNRIGGEATNMMMQKGKLPNRTTPFKDTNGYSRSGSVRKLKRYTSGRAKLAVRSFRLRLSTIYEGSSFN”, for which the protein production result is “failed”.
